Patent US20260098059A1 (ENDOMET BIOSCIENCES, published 2026)
Several values for one entry are separate records, joined by “and”; a condition that tells them apart may be missing. Equal entries are not always repeated. Bridges are numbered along the chain shown (N, C = ends). Where no end group is shown, it is not given here. [ ]: non-standard residue; d: D form. NMeW = CN[C@@H](Cc1c[nH]c2ccccc12)C(=O)O; αMeV = CC(C)[C@](C)(N)C(=O)O; αMeS = C[C@](N)(CO)C(=O)O; NMeA = CN[C@@H](C)C(=O)O

T1: β-catenin (UniProt P35222 134-665, limits assumed, biotinylated in the SPR and plate assays)
T1 construct: also called beta catenin; biotinylated β-catenin
T1 sequence (looked up): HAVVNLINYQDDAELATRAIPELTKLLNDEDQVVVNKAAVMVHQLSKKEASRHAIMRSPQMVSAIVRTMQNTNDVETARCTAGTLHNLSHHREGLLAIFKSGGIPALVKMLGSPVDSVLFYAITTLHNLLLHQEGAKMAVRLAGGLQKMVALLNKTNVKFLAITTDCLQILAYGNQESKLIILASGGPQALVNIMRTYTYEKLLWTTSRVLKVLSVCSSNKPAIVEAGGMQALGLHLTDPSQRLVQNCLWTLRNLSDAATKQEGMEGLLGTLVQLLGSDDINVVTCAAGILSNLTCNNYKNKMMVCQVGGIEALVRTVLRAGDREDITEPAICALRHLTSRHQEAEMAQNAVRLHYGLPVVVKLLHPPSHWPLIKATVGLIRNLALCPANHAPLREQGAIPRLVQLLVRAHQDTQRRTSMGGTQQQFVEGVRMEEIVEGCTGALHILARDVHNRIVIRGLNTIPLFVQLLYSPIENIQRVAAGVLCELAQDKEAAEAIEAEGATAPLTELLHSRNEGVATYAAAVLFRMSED


Tests used:
β-catenin [1] = molecular target: T1, β-catenin; assay: competitive FP
Procedure, shortened: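 Competitive fluorescence polarization with inhibitor peptide serially diluted from 10 nM to 30 uM; polarization read at 470 nm excitation, 520 nm emission. Experiments performed three times.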

β-catenin [2] = molecular target: T1, β-catenin; assay: cell-based or functional assay

Kd (β-catenin [1])	Wnt Reporter EC50 (β-catenin [2])	Proliferation IC50, Wnt dependent cells (β-catenin [2]) [µM]	Binder
≤ 0.4 µM	≤ 7.5 µM		WXQKILDEHGQRVWG (HELM PEPTIDE1{[ac].W.[O=C([C@@H]1CCCCN1[*:1])[*:2]].Q.K.I.L.D.E.H.[O=C([C@@H](N[*:1])C1CCCCC1)[*:2]].Q.R.V.W.G.[am]}$PEPTIDE1,PEPTIDE1,5:R3-9:R3$$$V2.0; SMILES CC[C@H](C)[C@@H]1NC(=O)[C@@H](NC(=O)[C@H](CCC(N)=O)NC(=O)[C@@H]2CCCCN2C(=O)[C@H](Cc2c[nH]c3ccccc23)NC(C)=O)CCCCNC(=O)CC[C@@H](C(=O)N[C@@H](Cc2c[nH]cn2)C(=O)N[C@H](C(=O)N[C@@H](CCC(N)=O)C(=O)N[C@@H](CCCNC(=N)N)C(=O)N[C@H](C(=O)N[C@@H](Cc2c[nH]c3ccccc23)C(=O)NCC(N)=O)C(C)C)C2CCCCC2)NC(=O)[C@H](CC(=O)O)NC(=O)[C@H](CC(C)C)NC1=O) [SEQ ID NO: 442]
≤ 0.4 µM	> 30 µM		H-W[NMeW]ESILDEH[αMeV]QRVWG-NH2 [SEQ ID NO: 39]
≤ 0.4 µM	> 30 µM		WAQKILDEHGQRVWG (HELM PEPTIDE1{[ac].W.A.Q.K.I.L.D.E.H.[O=C([C@@H](N[*:1])C1CCCCC1)[*:2]].Q.R.V.W.G.[am]}$PEPTIDE1,PEPTIDE1,5:R3-9:R3$$$V2.0; SMILES CC[C@H](C)[C@@H]1NC(=O)[C@@H](NC(=O)[C@H](CCC(N)=O)NC(=O)[C@H](C)NC(=O)[C@H](Cc2c[nH]c3ccccc23)NC(C)=O)CCCCNC(=O)CC[C@@H](C(=O)N[C@@H](Cc2c[nH]cn2)C(=O)N[C@H](C(=O)N[C@@H](CCC(N)=O)C(=O)N[C@@H](CCCNC(=N)N)C(=O)N[C@H](C(=O)N[C@@H](Cc2c[nH]c3ccccc23)C(=O)NCC(N)=O)C(C)C)C2CCCCC2)NC(=O)[C@H](CC(=O)O)NC(=O)[C@H](CC(C)C)NC1=O) [SEQ ID NO: 441]
≤ 0.4 µM	> 15 µM and ≤ 22.5 µM	26.8	WAQKILDEHGQRVWG (HELM PEPTIDE1{[O=C(O)CCC(=O)[*:2]].W.[meA].Q.K.I.L.D.E.H.[O=C([C@@H](N[*:1])C1CCCCC1)[*:2]].Q.R.V.W.G.[am]}$PEPTIDE1,PEPTIDE1,5:R3-9:R3$$$V2.0; SMILES CC[C@H](C)[C@@H]1NC(=O)[C@@H](NC(=O)[C@H](CCC(N)=O)NC(=O)[C@H](C)N(C)C(=O)[C@H](Cc2c[nH]c3ccccc23)NC(=O)CCC(=O)O)CCCCNC(=O)CC[C@@H](C(=O)N[C@@H](Cc2c[nH]cn2)C(=O)N[C@H](C(=O)N[C@@H](CCC(N)=O)C(=O)N[C@@H](CCCNC(=N)N)C(=O)N[C@H](C(=O)N[C@@H](Cc2c[nH]c3ccccc23)C(=O)NCC(N)=O)C(C)C)C2CCCCC2)NC(=O)[C@H](CC(=O)O)NC(=O)[C@H](CC(C)C)NC1=O) [SEQ ID NO: 405]
≤ 0.4 µM	≤ 7.5 µM		W[NMeA]QSILDEHVQKVWG-NH2 (lactam 8-12; not fully specified (N-terminus); printed as H17C8C(O)NH-W-NmeA-QSILDE*HVQK*VWG-NH2) [SEQ ID NO: 438]
≤ 0.4 µM	> 7.5 µM and ≤ 15 µM		W[NMeA]QSILDEHVQKVWG-NH2 (lactam 8-12; not fully specified (N-terminus); printed as H23C11C(O)NH-W-NmeA-QSILDE*HVQK*VWG-NH2) [SEQ ID NO: 439]
≤ 0.4 µM	≤ 7.5 µM		WPQSILDEHGQKVWG (not fully specified; Lauroyl-NH-WPQSILDE*H-Chg-QK*VWG-NH2) [SEQ ID NO: 473]
≤ 0.4 µM	> 7.5 µM and ≤ 15 µM		WPQSILDEHGQKVWG (not fully specified; Ac-NH-WPQSILDE*H-Chg-QK*VWG-NH2) [SEQ ID NO: 472]
≤ 0.4 µM	> 30 µM		ARLPESILDEHVQRVWP (HELM PEPTIDE1{[ac].[bAla].R.L.P.E.S.I.L.D.E.H.V.Q.R.V.W.P.[am]}$$$$V2.0; SMILES CC[C@H](C)[C@H](NC(=O)[C@H](CO)NC(=O)[C@H](CCC(=O)O)NC(=O)[C@@H]1CCCN1C(=O)[C@H](CC(C)C)NC(=O)[C@H](CCCNC(=N)N)NC(=O)CCNC(C)=O)C(=O)N[C@@H](CC(C)C)C(=O)N[C@@H](CC(=O)O)C(=O)N[C@@H](CCC(=O)O)C(=O)N[C@@H](Cc1c[nH]cn1)C(=O)N[C@H](C(=O)N[C@@H](CCC(N)=O)C(=O)N[C@@H](CCCNC(=N)N)C(=O)N[C@H](C(=O)N[C@@H](Cc1c[nH]c2ccccc12)C(=O)N1CCC[C@H]1C(N)=O)C(C)C)C(C)C) [SEQ ID NO: 413]
≤ 0.4 µM	> 7.5 µM and ≤ 15 µM		WXQKILDEHGQRVWG (HELM PEPTIDE1{[ac].W.[Aib].Q.K.I.L.D.E.H.[O=C([C@@H](N[*:1])C1CCCCC1)[*:2]].Q.R.V.W.G.[am]}$PEPTIDE1,PEPTIDE1,5:R3-9:R3$$$V2.0; SMILES CC[C@H](C)[C@@H]1NC(=O)[C@@H](NC(=O)[C@H](CCC(N)=O)NC(=O)C(C)(C)NC(=O)[C@H](Cc2c[nH]c3ccccc23)NC(C)=O)CCCCNC(=O)CC[C@@H](C(=O)N[C@@H](Cc2c[nH]cn2)C(=O)N[C@H](C(=O)N[C@@H](CCC(N)=O)C(=O)N[C@@H](CCCNC(=N)N)C(=O)N[C@H](C(=O)N[C@@H](Cc2c[nH]c3ccccc23)C(=O)NCC(N)=O)C(C)C)C2CCCCC2)NC(=O)[C@H](CC(=O)O)NC(=O)[C@H](CC(C)C)NC1=O) [SEQ ID NO: 443]
≤ 0.4 µM	> 30 µM		WAQKILDEHGQRVWG (HELM PEPTIDE1{W.[meA].Q.K.I.L.D.E.H.[O=C([C@@H](N[*:1])C1CCCCC1)[*:2]].Q.R.V.W.G.[am]}$PEPTIDE1,PEPTIDE1,4:R3-8:R3$$$V2.0; SMILES CC[C@H](C)[C@@H]1NC(=O)[C@@H](NC(=O)[C@H](CCC(N)=O)NC(=O)[C@H](C)N(C)C(=O)[C@@H](N)Cc2c[nH]c3ccccc23)CCCCNC(=O)CC[C@@H](C(=O)N[C@@H](Cc2c[nH]cn2)C(=O)N[C@H](C(=O)N[C@@H](CCC(N)=O)C(=O)N[C@@H](CCCNC(=N)N)C(=O)N[C@H](C(=O)N[C@@H](Cc2c[nH]c3ccccc23)C(=O)NCC(N)=O)C(C)C)C2CCCCC2)NC(=O)[C@H](CC(=O)O)NC(=O)[C@H](CC(C)C)NC1=O) [SEQ ID NO: 403]
> 0.4 µM and ≤ 1 µM	> 30 µM		ARLPESILDEHVQRVWP (HELM PEPTIDE1{[bAla].R.L.P.E.S.I.L.D.E.H.V.Q.R.V.W.P.[am]}$$$$V2.0; SMILES CC[C@H](C)[C@H](NC(=O)[C@H](CO)NC(=O)[C@H](CCC(=O)O)NC(=O)[C@@H]1CCCN1C(=O)[C@H](CC(C)C)NC(=O)[C@H](CCCNC(=N)N)NC(=O)CCN)C(=O)N[C@@H](CC(C)C)C(=O)N[C@@H](CC(=O)O)C(=O)N[C@@H](CCC(=O)O)C(=O)N[C@@H](Cc1c[nH]cn1)C(=O)N[C@H](C(=O)N[C@@H](CCC(N)=O)C(=O)N[C@@H](CCCNC(=N)N)C(=O)N[C@H](C(=O)N[C@@H](Cc1c[nH]c2ccccc12)C(=O)N1CCC[C@H]1C(N)=O)C(C)C)C(C)C) [SEQ ID NO: 410]
≤ 0.4 µM	> 30 µM		RWPQKILDEHVRRVWR (HELM PEPTIDE1{[ac].R.W.P.Q.K.I.L.D.E.H.V.R.R.V.W.R.[am]}$PEPTIDE1,PEPTIDE1,6:R3-10:R3$$$V2.0; SMILES CC[C@H](C)[C@@H]1NC(=O)[C@@H](NC(=O)[C@H](CCC(N)=O)NC(=O)[C@@H]2CCCN2C(=O)[C@H](Cc2c[nH]c3ccccc23)NC(=O)[C@H](CCCNC(=N)N)NC(C)=O)CCCCNC(=O)CC[C@@H](C(=O)N[C@@H](Cc2c[nH]cn2)C(=O)N[C@H](C(=O)N[C@@H](CCCNC(=N)N)C(=O)N[C@@H](CCCNC(=N)N)C(=O)N[C@H](C(=O)N[C@@H](Cc2c[nH]c3ccccc23)C(=O)N[C@@H](CCCNC(=N)N)C(N)=O)C(C)C)C(C)C)NC(=O)[C@H](CC(=O)O)NC(=O)[C@H](CC(C)C)NC1=O) [SEQ ID NO: 428]
≤ 0.4 µM	> 22.5 µM and ≤ 30 µM		QKILDEHGQRVWG (HELM PEPTIDE1{[ac].Q.K.I.L.D.E.H.[O=C([C@@H](N[*:1])C1CCCCC1)[*:2]].Q.R.V.W.G.[am]}$PEPTIDE1,PEPTIDE1,3:R3-7:R3$$$V2.0; SMILES CC[C@H](C)[C@@H]1NC(=O)[C@@H](NC(=O)[C@H](CCC(N)=O)NC(C)=O)CCCCNC(=O)CC[C@@H](C(=O)N[C@@H](Cc2c[nH]cn2)C(=O)N[C@H](C(=O)N[C@@H](CCC(N)=O)C(=O)N[C@@H](CCCNC(=N)N)C(=O)N[C@H](C(=O)N[C@@H](Cc2c[nH]c3ccccc23)C(=O)NCC(N)=O)C(C)C)C2CCCCC2)NC(=O)[C@H](CC(=O)O)NC(=O)[C@H](CC(C)C)NC1=O) [SEQ ID NO: 440]
≤ 0.4 µM	> 30 µM		H-W[NMeW]E[αMeS]ILDEHVQRVWG-NH2 [SEQ ID NO: 40]
≤ 0.4 µM	> 30 µM		H-W[NMeW]E[αMeS]ILDEH[αMeV]QRVWG-NH2 [SEQ ID NO: 38]
